Laboratory results: the Human Domainome abundance scans (Beltran et al. 2025)

B1: Tumor protein p73, residues 487 to 549; numbered along this chain, O15350 (parent)
chain: YHADPSLVSFLTGLGCPNCIEYFTSQGLQSIYHLQNLTIEDLGALKIPEQYRMTIWRGLQDLK

Variants of: B1
Experiment: abundance fitness (aPCA) (normalised: wild type 0, dead -1); higher = more abundant; growth selection in yeast, the domain comes from the species named
Settings: Homo sapiens

Abundance fitness, by site and new letter:
I39: M -0.149 | W -0.231
T24: M 0.018 | Q -0.086 | S -0.007 | H -0.123 | K -0.013 | A -0.02 | F -0.212 | L -0.037 | W -0.187 | N -0.224 | V -0.077 | D -0.198 | R -0.083 | E -0.108 | Y -0.206 | C -0.097 | P -0.461
I31: G -0.199 | T -0.005 | L 0.035 | W -0.025 | K -0.11 | D -0.269 | V 0.042 | A 0.004 | P -0.048 | R -0.057 | E -0.129 | Q 0.026 | M 0.012 | C -0.011 | H -0.156 | Y -0.133 | F -0.294 | N -0.086
E21: N -0.037 | S -0.003 | Y -0.042 | K -0.048 | P -0.053 | R -0.009 | T -0.054 | V -0.018 | W -0.087
L42: I -0.215 | M -0.078 | H -0.577 | G -0.654 | C -0.494 | D -0.618 | A -0.447 | K -0.515 | F 0.012 | N -0.858
E40: C 0.033 | G 0.053 | D -0.06 | W -0.085 | V -0.097 | M -0.127 | K -0.141 | P -0.152 | S -0.048 | A 0.007 | H -0.005 | R -0.059 | Q -0.124 | Y -0.215
T38: H -0.064 | Q -0.018 | V -0.106 | E -0.107 | S 0.018 | W -0.415 | P -0.201 | K 0.103 | Y -0.409 | D -0.215 | C -0.073 | R -0.049 | A -0.014 | N -0.11 | M -0.13 | G -0.088 | F -0.517 | L -0.158
Q29: N -0.108 | M 0.03 | L 0.044 | K 0.05 | A -0.047 | W -0.139 | I 0.142 | R -0.063 | F -0.005 | V -0.016 | E 0.05 | S 0.053 | P 0.006 | T 0.066 | G -0.006 | D 0.089 | H 0.102
H33: K 0.112 | V -0.059 | T 0.01 | L -0.142 | N -0.027 | F -0.344 | A -0.014 | P -0.127 | C -0.051 | M -0.088 | I -0.216 | G -0.038 | Y -0.112 | D -0.017 | W -0.566 | R -0.055 | Q 0.069 | E 0.003
G27: M -0.716 | N -0.055 | V -0.61 | P -0.367 | H -0.004 | K -0.089 | C -0.448 | T -0.172 | S -0.07 | R -0.024 | F -1 | L -1.02 | Q -0.05 | A -0.304 | D 0.06
L34: S -0.319 | P -0.671 | V 0.038 | D -0.835 | A 0.048 | N -0.536 | Q -0.529 | R -0.867 | M 0.021 | T 0.018 | Y -0.285 | C -0.049 | E -0.638
D41: N -0.042 | T -0.159 | Y -0.45 | F -0.689 | V -0.644 | C -0.361 | G 0.006 | W -0.885 | Q 0.105 | S 0 | I -0.9 | E 0.119 | H -0.198 | P -1.05 | A -0.094 | M -0.184
